Data on 97 sequences can be found in the supplement of paper PMC6755084.

For this data set, the system named is F1*sub RNA substrate (template-directed ligation). As to the kind of experiment: fraction ligated after 30 min (ligated reads / total reads); higher = more ligase activity; sequences stand for … in GAGACCGCAACTGAAAAGTTGT…AGTTCTGCACGTAGAAGCAAAAGGC
To be noted: 42 °C. In outline: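 Oligo-pool templates underwent PCR amplification, T7 transcription and gel purification to yield ribozyme variants. Gel-separated ligated and unligated bands were converted to complementary DNA with barcoded primers and sequenced on a MiSeq, keeping core bases of quality ≥20. The ratio of ligated reads to total reads gave the fraction ligated for every variant.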
TTCACTTGTCGTAAGACACTTTGGATGGTTGA [2d44] had a fraction ligated of 0.739.

In turn, “TATCACTTGTCTAAACACTTTGGATGGGTTA [3d1844]” came in with a fraction ligated of 0.758. TATACTTGCGTAAGACACTTTGGAGGGTTGA [3d824] showed a fraction ligated of 0.0191.

“TATCATTGTCGTAGACACTTGGATGGGTTGA [3d1220]” had a fraction ligated of 0.752. In turn, “TATCACTTGTCGTAAACTTTGGATGGGTTGA [3d1993]” gave a fraction ligated of 0.804. Turning to TTCACTTGTCGTAAACACTTTGGATGGGTTGA [2d35], the fraction ligated came to 0.646.

For the sequence TACACTTTCGTAAGACACTTTGGTGGGTTGA [3d596], the fraction ligated was found to be 0.0156. In turn, TTCACTTGTCGTAAGCACTTTGGATGGGTTG [3d461] displayed a fraction ligated of 0.601. On to “TATCACTTTCGTAAGACACTGGATGGGTTGA [3d1561]”, for which the fraction ligated came to 0.774. On to “TATCACTTTCGTAAGACACTTTGGATGGTTGA [2d160]”, for which the fraction ligated is 0.114.

TATATTGTCGTAAGACACTTTGGATGGGTTG [3d776] gave a fraction ligated of 0.214. Take “TATCACTTTCGTAAGACTTTGGATGGGTTGA [3d1529]”: the fraction ligated was 0.823. Next, TTCATTTCGTAAGACACTTTGGATGGGTTGA [3d318]: 0.104; TATACTTGCGTAAGACCTTTGGATGGGTTGA [3d819]: 0.629; “TATCACTTGTCGAAGACACTTTGGTGGGTTG [3d1973]”: 0.0779.

On to “TATCCTTGTCTAAGACACTTTGGATGGGTTG [3d1028]”, for which the fraction ligated worked out at 0.773. Next, “TATCCTTGTCTAAGACACTTTGGATGGGTTA [3d1027]”: 0.394; TATCTTGTCGTAAGACACTTTGGATGGGTTA [3d756]: 0.722; “TATCACTTGTCTAAGACCTTTGATGGGTTGA [3d1865]”: 0.732. Next, “TATCACTTTCGAAGACATTTGGATGGGTTGA [3d1498]”: 0.769. For “TATCATTGTCGTAAGACCTTTGGATGGTTGA [3d1259]”, the fraction ligated is 0.493. Regarding TTCATGTCGTAAGACACTTTGGATGGGTTGA [3d317], the fraction ligated stood at 0.468. TTCACTTGTCGTAAGAACTTTGGATGGTTGA [3d467] showed a fraction ligated of 0.279. With ATCACTTGTCGTAAGAATTTGGATGGGTTGA [3d231], the fraction ligated worked out at 0.757. “TATCACTTGTGTAACACTTTGGATGGGTTGA [3d1732]” yielded a fraction ligated of 0.841. On to “TATCACTTGTCAAGCACTTTGGATGGGTTGA [3d1812]”, for which the fraction ligated stood at 0.785. Next, “TATCATTGTCTAAGACACTTTGGTGGGTTGA [3d1196]”: 0.222; “TATCACTTGTGTAAGACACTTGGATGGTTGA [3d1790]”: 0.0286; “TATCACTTGTCGTAAACACTTGATGGGTTGA [3d2082]”: 0.727.

Take “TATCACTTTCGTAAGCCTTTGGATGGGTTGA [3d1530]”: the fraction ligated is 0.774. In the case of TATACTTGTCGAAGACATTTGGATGGGTTGA [3d862] it was 0.762; in that of ATCACTTGTCGTGACACTTTGGATGGGTTGA [3d198], 0.746; in that of TATACTTGTCGTAGACACTTTGGTGGGTTGA [3d878], 0.0282. The sequence ATCACTTGTCGTAGACACTTTGGTGGGTTGA [3d206] returned a fraction ligated of 0.0928. Next, TATACTTGTCGTAAGACCTTGGATGGGTTGA [3d911]: 0.777; TTCACTTGTCGTAAGACACTTTGATGGTTGA [3d494]: 0.0545.

Turning to “TATCACTTGCGAAGACACTTTGGAGGGTTGA [3d1622]”, the fraction ligated was 0.105.

Sequence “TATCACTTTGTAAACACTTTGGATGGGTTGA [3d1467]” gave a fraction ligated of 0.823. Regarding “TATCACTTTCGTAAACCTTTGGATGGGTTGA [3d1520]”, the fraction ligated was found to be 0.788. As for “TATCACTTTCGTAAGACACTTTGGAGGGTTG [3d1580]”, the fraction ligated came out at 0.0276. With TACACTTGTGTAAGAACTTTGGATGGGTTGA [3d622], the fraction ligated came out at 0.00557. Regarding “TATCACTTGTCGTAAACACTTTGGATGGTTG [3d2102]”, the fraction ligated worked out at 0.17.

In the case of “TATCACTTGTGTAAGCACTTTGGATGGTTGA [3d1761]”, the fraction ligated is 0.256. Sequence TTACTTGTCGTAAGAACTTTGGATGGGTTGA [3d288] had a fraction ligated of 0.0626.

“TATCACTTGGTAAGACACTTTGATGGGTTGA [3d1593]” showed a fraction ligated of 0.776. TACCTTGTCGTAAGACACTTTGGTGGGTTGA [3d542]: the fraction ligated worked out at 0.744. Consider ATCACTTGTCGTAAGACACTTTGGATGGGTTGA [1d1], for which the fraction ligated was 0.781. “TATCACTTGTCGTAGCACTTTGGAGGGTTGA [3d2009]” came in with a fraction ligated of 0.101. Take “TATCATTGTCGTAAGACACTTGATGGGTTGA [3d1270]”: the fraction ligated was found to be 0.779.

Turning to ATCATTGTCGTAAGACACTTTGGTGGGTTGA [3d100], the fraction ligated stood at 0.109.

Take “TATCACTTGTAAGACACTTTGGATGGGTTGA [3d1311]”: the fraction ligated stood at 0.837. On to “TATCACTTGTCGAAGACCTTTGGATGGTTGA [3d1947]”, for which the fraction ligated is 0.299. Consider “TATCACTTGTCGTAGAACTTTGATGGGTTGA [3d2015]”, for which the fraction ligated came to 0.848. The sequence TAACTGTCGTAAGACACTTTGGATGGGTTGA [3d509] returned a fraction ligated of 0.175.

In turn, TACACTGTCGTAAACACTTTGGATGGGTTGA [3d573] showed a fraction ligated of 0.181.

“TATCATGTCGTAAGACCTTTGGATGGGTTGA [3d1131]” registered a fraction ligated of 0.778. “TATCACTTGTCGAACACTTTGGATGGGTTGA [3d1903]” returned a fraction ligated of 0.802.

TATACTGTCGTAAGACACTTTGATGGGTTGA [3d790] showed a fraction ligated of 0.743. For TATCCTTGCGTAAGCACTTTGGATGGGTTGA [3d989], the fraction ligated worked out at 0.775. TCACTTGTCGTAAGACCTTTGGATGGGTTGA [3d15] displayed a fraction ligated of 0.769.

“TATCACTTGTCTAAGAACTTTGGATGGGTTA [3d1862]” returned a fraction ligated of 0.735.

In the case of “TATCACTTGTCAAGAACTTTGGATGGGTTGA [3d1813]”, the fraction ligated was determined as 0.839. As to “TATCACTTCGTAAGACACTTTGGTGGGTTGA [3d1322]”, the fraction ligated was determined as 0.085. For “TATCATGTCGTAAGACACTTTGGATGGGTTG [3d1139]”, the fraction ligated is 0.784. For TTCACTTTCGTAAGACCTTTGGATGGGTTGA [3d362], the fraction ligated was determined as 0.437. Next, ACACTTGTCTAAGACACTTTGGATGGGTTGA [3d31]: 0.441; “TATCATTGTCGTAGACATTTGGATGGGTTGA [3d1219]”: 0.809; “TATCACTTGTCGTAAGACCTTGGATGGGTTA [3d2188]”: 0.771. For “TATCACTGTCGTAAGACACTTTATGGGTTGA [3d1447]”, the fraction ligated turned out to be 0.0197.

For “TATCCTTGTCGAAGCACTTTGGATGGGTTGA [3d1031]”, the fraction ligated was 0.775. In the case of “TATCACTTGTCTAAGCCTTTGGATGGGTTGA [3d1847]”, the fraction ligated was 0.776. Turning to ATCATTGTCGTAAGACACTTGGATGGGTTGA [3d98], the fraction ligated came out at 0.726. The sequence “TATCACTTGTCGTAAGCACTTTGGATGGTTGA [2d251]” displayed a fraction ligated of 0.216. Next, “TATCACTTGTGTAAGACACTTTGGATGGTTA [3d1806]”: 0.101; “TATCACTTTCGTAAGACCTTTGGATGGTTGA [3d1551]”: 0.0784; “TATCACTTGTCGTAAGCCTTTGGATGGGTTGA [2d245]”: 0.781. The sequence TATACTTGTCTAGACACTTTGGATGGGTTGA [3d844] had a fraction ligated of 0.732. For the sequence TATACTTGCGAAGACACTTTGGATGGGTTGA [3d814], the fraction ligated stood at 0.649.

As to ATCACTTGTCGTAGCACTTTGGATGGGTTGA [3d200], the fraction ligated came to 0.749. In the case of “TATCACTTGTCGTAGAACTTTGGATGGGTTG [3d2020]” it was 0.854; in that of “TATCACTTGCGTAAACACTTTGGATGGTTGA [3d1646]”, 0.149.

For “TATCACTTGTCGAAGACACTTTGATGGTTGA [3d1967]”, the fraction ligated was 0.0642. Next, ATCACTTGTCGTAAGAACTTTGGATGGGTTG [3d238]: 0.794; TATCCTGCGTAAGACACTTTGGATGGGTTGA [3d951]: 0.786.

“TATCACTTGCGAAGACACTTTGGATGGGTTGA [2d165]” gave a fraction ligated of 0.835. Turning to “TATCACTTTCTAAGACACTTTGGATGGGTTA [3d1491]”, the fraction ligated is 0.68. In the case of “TATCACTTGTGTAAGACCTTTGGATGGGTTA [3d1777]” it was 0.81.

Consider “TATCACTTGTCGTAAGAACTTTGGTGGGTTA [3d2174]”, for which the fraction ligated came out at 0.0479. In the case of TTCACTTGTCGAAGACACTTTGGTGGGTTGA [3d424] it was 0.0265; in that of TACACTTTCGTAAGACACTTTGGATGGGTTA [3d599], 0.00822; in that of TACACTTGTCGTAAACACTTTGGTGGGTTGA [3d677], 0.0298. For the sequence “TATCATTGTCGTAAGACACTTTGGAGGGTTG [3d1288]”, the fraction ligated was found to be 0.0338.

In turn, TTCACTTTCGTAAGCACTTTGGATGGGTTGA [3d360] yielded a fraction ligated of 0.466. In turn, “TATCCTTGTCGTAGACACTTGGATGGGTTGA [3d1048]” returned a fraction ligated of 0.782. Turning to TTCACTTGTCTAAGACCTTTGGATGGGTTGA [3d407], the fraction ligated is 0.578. Regarding “TATCATTGTCTAAGACACTTTGATGGGTTGA [3d1195]”, the fraction ligated came to 0.751. In turn, “TATCACTGTCGTAAGACACTTTGGATGGTTA [3d1460]” came in with a fraction ligated of 0.272.
